Experimental data from IntAct's records for PubMed 17272281.

B1: S-M checkpoint control protein rad4 (Schizosaccharomyces pombe (strain ATCC 38366 / 972)), P32372 (parent)
chain: MGSSKPLKGFVICCTSIDLKQRTEISTKATKLGAAYRSDFTKDVTHLIAGDFDTPKYKFAAKSRPDIKIMSSEWIPVLYESWVQGEDLDDGLLVDKHFLPTLFKCRVCLTNIGQPERSRIENYVLKHGGTFCPDLTRDVTHLIAGTSSGRKYEYALKWKINVVCVEWLWQSIQRNAVLEPQYFQLDMPAEKIGLGAYVRLDPNTTEAKSYSENQKISKNKEKSGQSLAALAEEADLEPVIMKRGKKRDRSILWEELNNGKFEFSSRSEENSVLLDDFTPETVQPLEENELDTELNIENEAKLFKNLTFYLYEFPNTKVSRLHKCLSDNGGQISEFLSSTIDFVVIPHYFPVDELPIFSFPTVNEWWIERCLYYKKIFGIDEHALAKPFFRPSLVPYFNGLSIHLTGFKGEELSHLKKALTILGAVVHEFLGVQRSILLVNTNEPFSMKTRFKIQHATEWNVRVVGVAWLWNIIQSGKFIDQVSPWAIDKKENQEIKKFTNQNNMVFPTSDRDTRLQNSLAQQPIGHSTPHNSPSLLSVKKRQNNHIRSNTLIQLNSNSKDSTIFPRRSVTVPGDKIDTVWKSSVTKPETPTSPQEHVSYIDPDAQREKHKLYAQLTSNVDAIPPANDLQNQENGLLLITESHRKLRRR
partner: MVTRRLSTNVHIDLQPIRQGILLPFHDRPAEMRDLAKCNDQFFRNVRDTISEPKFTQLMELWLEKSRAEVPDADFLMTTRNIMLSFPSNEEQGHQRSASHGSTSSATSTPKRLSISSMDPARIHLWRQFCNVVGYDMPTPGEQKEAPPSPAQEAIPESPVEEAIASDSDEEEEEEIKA

Variants of: B1
Settings: with yq61_schpo yq61, O94733

Variant | effect of a mutation on the interaction
S171N | decreasing interaction
